Measurements from patent publication US8226967B2, “Surface active proteins as excipients in solid pharmaceutical formulations” (BASF SE, priority 2008, dated 2012).

B1: PO: class I hydrophobin from Pleurotus ostreatus, accession CAA76494, recombinant from E. coli (protein, UniProt O60048 22-113, looked up)
Class I hydrophobin POH3: IPRTNPPAPTCTTGSLQCCNSVQAASNPVVGLLAGLLGIVLGPITGQVGLTCSPITVIGVGGTSCSAQTVCCNGNSFNGLIVVGCSPVNISL
B2: SC: class I hydrophobin from Schizophyllum commune, accession P16933, recombinant his-tagged from E. coli (protein, UniProt P16933 25-136, looked up)
Class I hydrophobin SC3: GGHPGTTTPPVTTTVTVTTPPSTTTIAAGGTCTTGSLSCCNQVQSASSSPVTALLGLLGIVLSDLNVLVGISCSPLTVIGVGGSGCSAQTVCCENTQFNGLINIGCTPINIL
modifications: His tag

Assays:
Format in all cases: physicochemical
[1] = Dissolution test of Traumeel S tablets coated with alginate/hydrophobin biopolymer; conditions: Traumeel S tablets coated with 2% alginate containing 200 μg/ml protein, 0.1 M HCl pH 1, ambient temperature, FIG. 5A
Procedure: Homeopathic Traumeel®S tablets (Heel GmbH, Baden Baden, Germany) are used for coating experiments. These tablets are highly soluble and are formulated based on lactose monohydrate and magnesium stearate. […] Tablets are then immersed immediately into a solution of 0.1 M CaCl2 and dried at room temperature. For the dissolution test, tablets are immersed in 50 ml 0.1 M HCl at room temperature.
Traumeel® S (Heel) tablets are coated with hydrophobin, and resistance to acidic conditions of pH 1.0 is tested in a dissolution assay. Traumeel® S tablets are submersed in a solution of 2% alginate, containing 200 μg/ml TT, PO, TR or SC, respectively. […] After short submersion, alginate-coated tablets are allowed to polymerise in 0.1M CaCl2 and dried over night at ambient temperature.
The incubation for the dissolution test is at ambient temperature in 0.1M HCl for 10 to 120 min. Results: The coating of tablets with a biopolymer consisting of alginate with an admixture of hydrophobin yields beneficial properties regarding sustained release of a pharmaceutical composition.

[2] = Dissolution of gelatine films with or without hydrophobin; conditions: gelatine with 200 μg/ml hydrophobin
Procedure: Gelatine (stained red, purchased from RUF, Quakenbrück, Germany) is solubilized in water or a SC-solution (final concentration 200 μg/ml). 500 μl solubilized gelatine is added per well of a 6-well macroplate. Gelatine is dried over night at 50° C. Then 500 μl H2O, 0.1 N HCl or 0.1 N HCl with 0.4 U/ml pepsin, respectively, are added to the wells.

[3] = Release of indicator dye from gelatine capsules coated with alginate/hydrophobin biopolymer
Source text: (§1) For setting up the leakage experiments, gelatine capsules with a volume of 0.68 cm^3 (Capsulae operculatae Nr. 0, Pharmapol GmbH, D-25578 Dageling) are filled with the indicator dye bromo phenol blue. The capsules are filled with equal weight proportions of mannitol, sodium hydrogen carbonate, trisodium citrate dehydrogenate and water-soluble bromo phenol blue and closed by joining the upper and lower part of the capsule tightly. To avoid unspecific leakage from the capsule, the joint is sealed.
Filled and sealed capsules were submerged in a solution of 2% w/v alginate (E400) containing 200 μg/ml hydrophobin for 10 seconds. […] Crosslinking of alginate is accomplished by subsequent submerging in 0.1 M CaCl2. Subsequently, the capsules are dried at room temperature.
(§2) For testing the release of dye from the capsules after different surface treatments, the capsules are submerged in 50 ml 0.1 M HCl corresponding to a pH of 1.0 in order to mimic the acidic environment in the stomach. In a second setup, 0.4 U/ml pepsin are added to the 0.1 M HCl to test for resistance to a typical enzyme in the stomach juice. Quantification of the release is accomplished by computer aided optical evaluation of different areas of the solution in the immersion bath leading to arbitrary luminance units.
Hydrophobin SC is prepared and the gelatine capsules are filled with indicator dye as described above. Filled and sealed capsules are submerged in a solution of 2% w/v alginate (E400) containing 200 μg/ml hydrophobin.
Three hydrophobins are used to test if the modulation of the release kinetics of alginate coated gelatine capsules can be achieved with different hydrophobins. SC is prepared as described further above. Two additional hydrophobins are recombinantly produced in a similar procedure as described for SC. TT is from Talaromyces thermophilus and PO from Pleurotus ostreatus. Capsules are filled with indicator dye, sealed and immersed in a mixture of alginate and hydrophobin SC, TT or PO, respectively, as described in examples 1 and 2. As a control, an admixture of alginate and BSA is used. […]

[4] = Release of indicator dye from gelatine capsules coated by spraying with hydrophobin; conditions: for release of dye from capsules (retention of dye within the capsule): gelatine capsules sprayed with 200 μg/ml hydrophobin in water, 0.1 M HCl pH 1.0, interval of observation 2 hours, FIG. 1A
Source text: as §1
The filled and sealed capsules are sprayed using a commercially available nebuliser with a solution of 200 μg/ml SC in water.
as §2
The release of dye from capsules coated by spraying with hydrophobins or as a control with water, respectively, is assayed in an acidic environment to mimic stomach conditions. The amount of dye contained in the immersion bath is measured by optical evaluation and given as arbitrary luminance units.

Molecule	resistance to dissolution of the coated tablet (integrity of tablets) [1]	dissolution of gelatine ([2]; dried, H2O, 0.1 N HCl or 0.1 N HCl with 0.4 U/ml pepsin, FIG. 5B)	dissolution of gelatine in an environment mimicking gastric juices ([2]; 0.1 N HCl, with or without 0.4 U/ml pepsin)	dissolution of the biopolymer gelatine in water ([2]; water)	resistance of coated capsules / onset of dye release, acidic environment ([3]; alginate with 200 μg/ml protein, pH 1.0, FIG. 3A)	release characteristics of capsules (dye release) ([3]; alginate-coated capsules, 200 μg/ml protein, 0.1 M HCl pH 1.0 with 0.4 U/ml pepsin, FIG. 2B)	resistance of capsules to acidic conditions (dye release) ([3]; capsules submerged in 2% w/v alginate containing 200 μg/ml protein, pH 1.0, FIG. 2A)	resistance to dissolution of the coated tablet (integrity of tablets) ([1]; listed as SC3)	release of dye from capsules (retention of dye within the capsule) [4]	release of dye from capsules (retention of dye within the capsule) ([4]; listed as SC3)	release of dye from capsules ([4]; sprayed gelatine capsules, 0.1 M HCl pH 1.0 with 0.4 U/ml pepsin, FIG. 1B)
B1	superior to the class II hydrophobin TR	–	–	–	–	–	–	–	–	–	–
B2	superior to the class II hydrophobin TR	inhibits the dissolution of gelatine	reduced	strongly hampered	increased resistance to stomach juices	essentially the same	comparable to that of gelatine capsules sprayed with hydrophobin	delays the dissolution of the tablets significantly	prolonged retention of dye within the capsule	resistant to an acidic environment	same advantageous release characteristics
